Assay results as given in article PMC3938669, “Inhibition of Hepatitis C Virus Infection by DNA Aptamer against NS2 Protein”.

Target: NS2 (recombinant) (Hepatitis C virus JFH1 (genotype 2a), UniProt Q99IB8 814-1030)
Assay: ELONA; binding retained with excess yeast tRNA; ELONA: biotin-aptamer on streptavidin plates, protein 30 min at 37 C; washes PBS, 1 mM MgCl2, 0.1% BSA, 0.05% Tween-20; pH not stated
Settings: tags: N-terminal His (pET-28b), label: biotin

Sequence of NS2 (recombinant) (Q99IB8 814-1030): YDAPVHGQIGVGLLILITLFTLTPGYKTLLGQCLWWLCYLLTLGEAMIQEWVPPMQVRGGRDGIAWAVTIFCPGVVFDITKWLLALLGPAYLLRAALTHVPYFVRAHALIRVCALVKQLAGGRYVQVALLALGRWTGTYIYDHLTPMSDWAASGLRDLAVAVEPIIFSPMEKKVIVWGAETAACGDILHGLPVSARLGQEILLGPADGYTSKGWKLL

Binder	binding result
CTGGATCGAAAAGTATCCACGTTTGTCTGAAAATAGTGGCC (ssDNA) [aptamer NS2-1]	binds
CAGGTACCACCTTCATGGGCGCGGAAGACGATGGTGTACTA (ssDNA) [aptamer NS2-2]	binds
ACGGGGCAGGATTGTCCCCGCGCCTGGTTGAAGGTAGTCGC (ssDNA) [aptamer NS2-3]	binds
